Experiment [1] has as its target NOS3 NtMAP peptide (N-terminal MAP kinase site), biotinylated (human). Briefly: BLI; N-terminally biotinylated NOS3 peptides on streptavidin sensors, inactive MAP kinases as analytes (31 to 1000 nM); 25 °C; PBS with 10% glycerol, 0.005% tween, 1 mM DTT; global one-state association-then-dissociation fit.
Experiment [2] concerns the target NOS3 AI peptide (autoinhibitory loop site), biotinylated (human). Described as above.
In experiment [3] the target is AI peptide (NOS3 autoinhibitory loop site) (human). As to the kind of experiment: BLI; N-terminally biotinylated NOS3 peptides on streptavidin sensors, inactive MAP kinases as analytes at 31-1000 nM; 25 °C; PBS with 10% glycerol, 0.005% tween, 1 mM DTT; global one-state association-then-dissociation fit.
Experiment [4] deals with NtMAP peptide (NOS3 N-terminal MAP kinase site) (human). Described as above.
A further experiment concerns the target ERK2 (UniProt P63086). Briefly: BLI, biotinylated peptide on streptavidin sensor.

For “ERK2, inactive (unphosphorylated), His-purified (from UniProt P63086 1-358) (enzyme)”, the koff in experiment [1] came to 0.00623 s⁻¹; in experiment [2], 0.00207 s⁻¹; in experiment [3] it was 0.002 s⁻¹; in experiment [4] it was 0.062 s⁻¹. Also, the kon was found to be 6600 M⁻¹ s⁻¹ in experiment [1], 12100 M⁻¹ s⁻¹ in experiment [2], 12000 M⁻¹ s⁻¹ in experiment [3] and 6600 M⁻¹ s⁻¹ in experiment [4]. Further, the results for the Kd in experiment [3] and in experiment [4] were 0.17 µM and 0.94 µM, respectively.
Regarding “GST-JNK1α1, inactive (unphosphorylated), made in house (from UniProt P45983-2 1-384) (enzyme)”, the koff in experiment [1] came out at 0.000543 s⁻¹; in experiment [2], 0.00025 s⁻¹; in experiment [4], 0.00054 s⁻¹. In addition, the kon is 14100 M⁻¹ s⁻¹ in experiment [1], 84600 M⁻¹ s⁻¹ in experiment [2], 84000 M⁻¹ s⁻¹ in experiment [3] and 14000 M⁻¹ s⁻¹ in experiment [4]. Moreover, the results for the Kd in experiment [3] and in experiment [4] were 0.003 µM and 0.038 µM, respectively.
“NOS3 (eNOS) NtMAP site (from UniProt P29474) NtMAP pS114 peptide”: the KD result with ERK2 (reference: unphosphorylated NtMAP peptide, sites S114) is on record as “lost; reference 940”.
“NOS3 (eNOS) autoinhibitory (AI) loop site (from UniProt P29474) AI pS633 peptide”: the KD entry with ERK2 (reference: unphosphorylated AI peptide, sites S633) is “lost; reference 170”.

(Values after article PMC9063426, “MAP kinases differentially bind and phosphorylate NOS3 via two unique NOS3 sites” (FEBS Open Bio, 2022).)
